Data set [1] has as its target N-terminal part of human α2-macroglobulin (N-hα2M) (human) (UniProt P01023). The experiment in a line: not stated; apparent mass of the purified hα2M fragments without reducing agents; method not named.
Data set [2] concerns the molecule itself. Description: SEC; Superose 6 10/300, buffer D (20 mM Tris-HCl, 150 mM sodium chloride, pH 7.5); data not shown. On the technique in general: SEC sorts molecules by how far they enter the pores of the column.
Data set [3] concerns the molecule itself. The experiment in a line: SEC; Superose 6 10/300 (full-length recombinant hα2M) or Superdex 75 10/300 (pro-TGF-β2), buffer D (20 mM Tris-HCl, 150 mM sodium chloride, pH 7.5).
Data set [4] addresses T1, native authentic human α2-macroglobulin (human, UniProt P01023 24-1474, thioester bond intact (native form)).
T1 construct: human α2-macroglobulin, UniProt P01023, 1,474-residue precursor; as secreted it lacks the signal peptide (recombinant constructs begin at S24); Tetramer (680.6 kDa by SEC-MALLS); glycosylated; also called hα2M; native hα2M; source: purified from human blood plasma of individual donors (PEG 4,000 precipitation, zinc-chelating resin, IEC, SEC)
T1 sequence (looked up): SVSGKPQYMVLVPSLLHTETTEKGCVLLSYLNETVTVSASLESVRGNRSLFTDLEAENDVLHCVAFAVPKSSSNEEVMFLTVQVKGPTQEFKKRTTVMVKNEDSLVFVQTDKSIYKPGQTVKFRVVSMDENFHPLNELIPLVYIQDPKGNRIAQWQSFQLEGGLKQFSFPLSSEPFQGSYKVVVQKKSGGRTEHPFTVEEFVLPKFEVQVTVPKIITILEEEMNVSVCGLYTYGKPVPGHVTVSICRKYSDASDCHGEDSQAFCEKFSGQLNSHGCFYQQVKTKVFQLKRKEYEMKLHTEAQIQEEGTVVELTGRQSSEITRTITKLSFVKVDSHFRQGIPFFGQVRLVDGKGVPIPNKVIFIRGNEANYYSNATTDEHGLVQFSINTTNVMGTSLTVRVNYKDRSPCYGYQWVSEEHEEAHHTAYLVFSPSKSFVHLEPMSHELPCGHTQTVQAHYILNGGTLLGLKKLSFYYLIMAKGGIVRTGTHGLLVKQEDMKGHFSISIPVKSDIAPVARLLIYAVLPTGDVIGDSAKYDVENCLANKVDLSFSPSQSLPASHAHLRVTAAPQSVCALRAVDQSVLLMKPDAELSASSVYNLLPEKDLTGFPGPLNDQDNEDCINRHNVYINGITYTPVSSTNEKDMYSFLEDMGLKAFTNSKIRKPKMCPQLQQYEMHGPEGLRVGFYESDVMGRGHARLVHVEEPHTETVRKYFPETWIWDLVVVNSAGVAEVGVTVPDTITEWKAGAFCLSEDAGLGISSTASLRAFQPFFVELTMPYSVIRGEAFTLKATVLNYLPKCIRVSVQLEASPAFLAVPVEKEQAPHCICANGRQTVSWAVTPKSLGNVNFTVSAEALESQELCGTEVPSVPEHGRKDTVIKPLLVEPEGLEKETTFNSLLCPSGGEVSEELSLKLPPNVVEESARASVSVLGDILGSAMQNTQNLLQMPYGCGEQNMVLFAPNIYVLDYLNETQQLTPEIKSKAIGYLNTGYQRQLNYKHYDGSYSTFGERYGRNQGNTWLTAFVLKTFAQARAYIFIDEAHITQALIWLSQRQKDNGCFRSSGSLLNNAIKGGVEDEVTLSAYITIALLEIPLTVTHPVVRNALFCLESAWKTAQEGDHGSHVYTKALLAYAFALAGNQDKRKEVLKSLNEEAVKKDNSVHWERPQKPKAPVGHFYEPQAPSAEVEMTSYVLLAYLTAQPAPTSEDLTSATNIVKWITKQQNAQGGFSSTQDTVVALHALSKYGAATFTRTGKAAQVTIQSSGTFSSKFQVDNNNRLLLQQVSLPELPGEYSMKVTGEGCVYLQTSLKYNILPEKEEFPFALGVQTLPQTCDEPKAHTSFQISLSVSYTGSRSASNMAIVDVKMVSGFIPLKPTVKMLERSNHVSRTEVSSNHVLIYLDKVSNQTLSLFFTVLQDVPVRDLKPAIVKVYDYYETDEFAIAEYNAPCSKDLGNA
The experiment in a line: native gel or EMSA; Sulfo-NHS-AMCA-labelled GRAB mixed with hα2M variants at a 4:1 molar ratio, buffer J, two hours at 37 °C, 10% native PAGE, gel fluorescence then Coomassie. The note with it: both partners purified. A general note: Mobility shift assays separate free from complexed probe on a gel.

The target of data set [5] is T2, methylamine-induced authentic human α2-macroglobulin (human, UniProt P01023 24-1474, thioester bond opened by methylamine, producing a free cysteine).
T2 construct: human α2-macroglobulin, UniProt P01023; plasma protein as m1, induced form; Tetramer (684.1 kDa by SEC-MALLS); also called induced hα2M; induced authentic hα2M
T2 sequence (looked up): T1 sequence (looked up)
The data set is described as above. The note with it: both partners purified.

This note sets out measurements from publication PMC6591361, “Recombinant production of human α2-macroglobulin variants and interaction studies with recombinant G-related α2-macroglobulin binding protein and latent transforming growth factor-β2” (Scientific Reports, 2019).

What is called stoichiometry N is the number of molecules, sites or subunits per partner or assembly.

Consider “N-terminal part of human α2-macroglobulin (N-hα2M) (from UniProt P01023 24-788) (domain or fragment)”, for which the stoichiometry N in data set [1] worked out at 2.

B1: recombinant full-length human α2-macroglobulin from S2 cells (natural protein)
chain: SVSGKPQYMVLVPSLLHTETTEKGCVLLSYLNETVTVSASLESVRGNRSLFTDLEAENDVLHCVAFAVPKSSSNEEVMFLTVQVKGPTQEFKKRTTVMVKNEDSLVFVQTDKSIYKPGQTVKFRVVSMDENFHPLNELIPLVYIQDPKGNRIAQWQSFQLEGGLKQFSFPLSSEPFQGSYKVVVQKKSGGRTEHPFTVEEFVLPKFEVQVTVPKIITILEEEMNVSVCGLYTYGKPVPGHVTVSICRKYSDASDCHGEDSQAFCEKFSGQLNSHGCFYQQVKTKVFQLKRKEYEMKLHTEAQIQEEGTVVELTGRQSSEITRTITKLSFVKVDSHFRQGIPFFGQVRLVDGKGVPIPNKVIFIRGNEANYYSNATTDEHGLVQFSINTTNVMGTSLTVRVNYKDRSPCYGYQWVSEEHEEAHHTAYLVFSPSKSFVHLEPMSHELPCGHTQTVQAHYILNGGTLLGLKKLSFYYLIMAKGGIVRTGTHGLLVKQEDMKGHFSISIPVKSDIAPVARLLIYAVLPTGDVIGDSAKYDVENCLANKVDLSFSPSQSLPASHAHLRVTAAPQSVCALRAVDQSVLLMKPDAELSASSVYNLLPEKDLTGFPGPLNDQDNEDCINRHNVYINGITYTPVSSTNEKDMYSFLEDMGLKAFTNSKIRKPKMCPQLQQYEMHGPEGLRVGFYESDVMGRGHARLVHVEEPHTETVRKYFPETWIWDLVVVNSAGVAEVGVTVPDTITEWKAGAFCLSEDAGLGISSTASLRAFQPFFVELTMPYSVIRGEAFTLKATVLNYLPKCIRVSVQLEASPAFLAVPVEKEQAPHCICANGRQTVSWAVTPKSLGNVNFTVSAEALESQELCGTEVPSVPEHGRKDTVIKPLLVEPEGLEKETTFNSLLCPSGGEVSEELSLKLPPNVVEESARASVSVLGDILGSAMQNTQNLLQMPYGCGEQNMVLFAPNIYVLDYLNETQQLTPEIKSKAIGYLNTGYQRQLNYKHYDGSYSTFGERYGRNQGNTWLTAFVLKTFAQARAYIFIDEAHITQALIWLSQRQKDNGCFRSSGSLLNNAIKGGVEDEVTLSAYITIALLEIPLTVTHPVVRNALFCLESAWKTAQEGDHGSHVYTKALLAYAFALAGNQDKRKEVLKSLNEEAVKKDNSVHWERPQKPKAPVGHFYEPQAPSAEVEMTSYVLLAYLTAQPAPTSEDLTSATNIVKWITKQQNAQGGFSSTQDTVVALHALSKYGAATFTRTGKAAQVTIQSSGTFSSKFQVDNNNRLLLQQVSLPELPGEYSMKVTGEGCVYLQTSLKYNILPEKEEFPFALGVQTLPQTCDEPKAHTSFQISLSVSYTGSRSASNMAIVDVKMVSGFIPLKPTVKMLERSNHVSRTEVSSNHVLIYLDKVSNQTLSLFFTVLQDVPVRDLKPAIVKVYDYYETDEFAIAEYNAPCSKDLGNPTG
notes: human α2-macroglobulin, UniProt P01023, residues S24-N1473; residues from the construct before the His6-tag; Found in the induced form; also called recombinant hα2M from S2 cells; pIE-hα2M-H6; source: Drosophila S2 cells, transiently transfected, secreted (AKH signal peptide), purified (Ni-NTA, IEC, SEC); not shown: His6, C-terminal, kept
On to B1, for which the “stoichiometry N” value in data set [2] was 4.

B2: recombinant full-length human α2-macroglobulin from Expi293F cells (natural protein, UniProt P01023 24-1468, looked up)
chain: SVSGKPQYMVLVPSLLHTETTEKGCVLLSYLNETVTVSASLESVRGNRSLFTDLEAENDVLHCVAFAVPKSSSNEEVMFLTVQVKGPTQEFKKRTTVMVKNEDSLVFVQTDKSIYKPGQTVKFRVVSMDENFHPLNELIPLVYIQDPKGNRIAQWQSFQLEGGLKQFSFPLSSEPFQGSYKVVVQKKSGGRTEHPFTVEEFVLPKFEVQVTVPKIITILEEEMNVSVCGLYTYGKPVPGHVTVSICRKYSDASDCHGEDSQAFCEKFSGQLNSHGCFYQQVKTKVFQLKRKEYEMKLHTEAQIQEEGTVVELTGRQSSEITRTITKLSFVKVDSHFRQGIPFFGQVRLVDGKGVPIPNKVIFIRGNEANYYSNATTDEHGLVQFSINTTNVMGTSLTVRVNYKDRSPCYGYQWVSEEHEEAHHTAYLVFSPSKSFVHLEPMSHELPCGHTQTVQAHYILNGGTLLGLKKLSFYYLIMAKGGIVRTGTHGLLVKQEDMKGHFSISIPVKSDIAPVARLLIYAVLPTGDVIGDSAKYDVENCLANKVDLSFSPSQSLPASHAHLRVTAAPQSVCALRAVDQSVLLMKPDAELSASSVYNLLPEKDLTGFPGPLNDQDNEDCINRHNVYINGITYTPVSSTNEKDMYSFLEDMGLKAFTNSKIRKPKMCPQLQQYEMHGPEGLRVGFYESDVMGRGHARLVHVEEPHTETVRKYFPETWIWDLVVVNSAGVAEVGVTVPDTITEWKAGAFCLSEDAGLGISSTASLRAFQPFFVELTMPYSVIRGEAFTLKATVLNYLPKCIRVSVQLEASPAFLAVPVEKEQAPHCICANGRQTVSWAVTPKSLGNVNFTVSAEALESQELCGTEVPSVPEHGRKDTVIKPLLVEPEGLEKETTFNSLLCPSGGEVSEELSLKLPPNVVEESARASVSVLGDILGSAMQNTQNLLQMPYGCGEQNMVLFAPNIYVLDYLNETQQLTPEIKSKAIGYLNTGYQRQLNYKHYDGSYSTFGERYGRNQGNTWLTAFVLKTFAQARAYIFIDEAHITQALIWLSQRQKDNGCFRSSGSLLNNAIKGGVEDEVTLSAYITIALLEIPLTVTHPVVRNALFCLESAWKTAQEGDHGSHVYTKALLAYAFALAGNQDKRKEVLKSLNEEAVKKDNSVHWERPQKPKAPVGHFYEPQAPSAEVEMTSYVLLAYLTAQPAPTSEDLTSATNIVKWITKQQNAQGGFSSTQDTVVALHALSKYGAATFTRTGKAAQVTIQSSGTFSSKFQVDNNNRLLLQQVSLPELPGEYSMKVTGEGCVYLQTSLKYNILPEKEEFPFALGVQTLPQTCDEPKAHTSFQISLSVSYTGSRSASNMAIVDVKMVSGFIPLKPTVKMLERSNHVSRTEVSSNHVLIYLDKVSNQTLSLFFTVLQDVPVRDLKPAIVKVYDYYETDEFAIAEYNAPCS
notes: human α2-macroglobulin, UniProt P01023, residues S24-S1468; also called recombinant hα2M from Expi293F cells; pS6-hα2M-H6; source: Expi293F cells, transiently transfected, secreted (mouse Ig κ leader), purified (Ni-NTA, IEC, SEC); not shown: His6, C-terminal, kept
B2: the “stoichiometry N” value in data set [3] came out at 4.

B3: G-related α2M-binding protein (GRAB), V34-N181, labelled with Sulfo-NHS-AMCA (domain or fragment)
chain: GAMVDSPIEQPRIIPNGGTLTNLLGNAPEKLALRNEERAIDELKKQAIEDKEATTAIEAASSDALEALADQTDALQSEEAAVVKADNAASDALEALADQTDALQSEEAEVVQSDNAASDAWEKAATPIALDVKKTKDTKPVVKKEERQNVN
modifications: sulfosuccinimidyl-7-amino-4-methylcoumarin-3-acetate (Sulfo-NHS-AMCA) label, sites not stated
notes: residues left at the N-terminus after TEV cleavage, from the cloning strategy; also called fluorophore-labelled GRAB; labelled GRAB; source: E. coli BL21 (DE3), purified, labelled with Sulfo-NHS-AMCA; not shown: His6, N-terminal, cleaved
In the case of B3, the binding result in data set [4] and in data set [5] was “binds” throughout.

B4: Strep-tagged latent human transforming growth factor-β2 (pro-TGF-β2) (natural protein)
chain: LSLSTCSTLDMDQFMRKRIEAIRGQILSKLKLTSPPEDYPEPEEVPPEVISIYNSTRDLLQEKASRRAAACERERSDEEYYAKEVYKIDMPPFFPSENAIPPTFYRPYFRIVRFDVSAMEKNASNLVKAEFRVFRLQNPKARVPEQRIELYQILKSKDLTSPTQRYIDSKVVKTRAEGEWLSFDVTDAVHEWLHHKDRNLGFKISLHCPCCTFVPSNNYIIPNKSEELEARFAGIDGTSTYTSGDQKTIKSTRKKNSGKTPHLLLMLLPSYRLESQQTNRRKKRALDAAYCFRNVQDNCCLRPLYIDFKRDLGWKWIHEPKGYNANFCAGACPYLWSSDTQHSRVLSLYNTINPEASASPCCVSQDLEPLTILYYIGKTPKIEQLSNMIVKSCKCS
notes: residues from the construct between the tag and L21; human pro-TGF-β2 (LAP plus mature TGF-β2), UniProt P61812, residues L21-S414; The purified protein was partially cleaved before A303 by host peptidases; also called Strep-tagged pro-TGF-β2; pS6-TGFB2-STREP; not shown: Strep-tag, N-terminal, kept
With B4, the “stoichiometry N” value in data set [3] was determined as 2.

B5: N-terminally octahistidine-tagged latent human transforming growth factor-β2 (pro-TGF-β2) (natural protein)
chain: B4 chain
notes: residues from the construct between the tag and L21; human pro-TGF-β2 (LAP plus mature TGF-β2), UniProt P61812, residues L21-S414; Partially cleaved before A303 by host peptidases; also called N-terminally His6-tagged pro-TGF-β2; pS6-TGFB2-H8; not shown: His8, N-terminal, kept
For the molecule B5, the “stoichiometry N” value in data set [3] is 2.
